Results reported in patent US20200397917, “ENGINEERED DNA BINDING PROTEINS” (Encoded Therapeutics, Inc., published 2020).

What was measured:
EGR1-based eTF, 3 ZF = EGR1-based eTF, 3 ZF (synthetic, UniProt P18146 SEQ:1-543); experiment: cell_activity; EGFP reporter
Protocol: (§1) HEK293 cells were cultured per standard methods, and co-transfected (FuGene HD, Promega) with 1.5 ug of a reporter plasmid consisting of EGFP under the control of a tetracycline-responsive element (TRE) tight promoter, and 1.5 ug of each tested activator, or empty vector control (pUC57). 48h following transfection, cells were imaged using an epifluorescent microscope for GFP expression. The cells were collected and RNA was isolated (Qiagen RNeasy Mini kit), and DNase treated. RNA (3 ug) was reverse transcribed using OligoDT primers (Superscript IV, Invitrogen). cDNA samples were analyzed by qPCR using Phusion Polymerase (New England Biolabs) and SYBR Green I: (30s at 98° C., 40×[10 sec at 98° C., 15 sec at 65° C., 15 sec at 72° C.]). Primers against EGFP (5′-[…]-3′ (SEQ ID NO: 369); 5′-[…]-3′ (SEQ ID NO: 370)) were used to quantify levels of reporter-driven EGFP transcript, and relative levels of EGFP expression were determined by the delta-delta Ct method with GAPDH as a reference gene (5′-[…]-3′ (SEQ ID NO: 192); 5′-[…]-3′ (SEQ ID NO: 193)).
(§2) Data are presented as fold changes relative to the control condition.

[1] = target: EGR1-based eTF, 6 ZF (SCN1A) (synthetic); experiment: cell_activity; endogenous SCN1A, HEK293
Protocol: (§3) HEK293 cells were cultured per standard methods, and transfected (FuGene HD, Promega) with 3 ug of each tested activator, or an EGFP control. 48h following transfection, cells were collected and RNA was isolated (Qiagen RNeasy Mini kit), and DNase treated. RNA (3 ug) was reverse transcribed using OligoDT primers (Superscript IV, Invitrogen). cDNA samples were analyzed by qPCR using Phusion Polymerase (New England Biolabs) and SYBR Green I: (30s at 98° C., 40×[10 sec at 98° C., 15 sec at 68° C., 15 sec at 72° C.]). Primers against human SCN1A (5′-[…]-3′ (SEQ ID NO: 190); 5′-[…]-3′ (SEQ ID NO: 191)) were used to quantify levels of reporter-driven EGFP transcript, and relative levels of EGFP expression were determined by the delta-delta Ct method with GAPDH as a reference gene (5′-[…]-3′ (SEQ ID NO: 192); 5′-[…]-3′ (SEQ ID NO: 193)). Data are presented as fold changes relative to the control condition. SEQ ID NOs: 6, 7, and 9 are eTFs derived from human EGR1 protein and are engineered to bind to a target site near or at endogenous SCN1A gene, wherein the target site is SEQ ID NOs: 35-37.

ZF DBD-CITED2 = ZF DBD-CITED2 (synthetic); experiment: cell_activity; versus reporter alone; conditions: tags: NLS; CITED2
Protocol: as §1, §2

ZF DBD-CITED4 = ZF DBD-CITED4 (synthetic); experiment: cell_activity; versus reporter alone; conditions: tags: NLS; CITED4
Protocol: as §1, §2

ZF DBD-VP64 = ZF DBD-VP64 (synthetic); experiment: cell_activity; EGFP reporter; about 40-fold in FIG. 33B; conditions: tags: NLS
Protocol: as §1, §2

[2] = target: EGR1-based eTF, duplicated 6 ZF (TRE) (synthetic); experiment: cell_activity; EGFP reporter
Protocol: as §1, §2

[3] = target: EGR1-based eTF, synthetic 6-ZF DBD (synthetic); experiment: cell_activity; EGFP reporter
Protocol: as §1, §2

[4] = target: EGR3-based eTF, 6 ZF (TRE) (synthetic); experiment: cell_activity; versus control SEQ 187
Protocol: as §1, §2

[5] = target: EGR1-based eTF, 9 ZF (SCN1A) (synthetic); experiment: cell_activity; endogenous SCN1A, HEK293
Protocol: as §3

EGR1-based eTF, 6 ZF (SCN1A) (synthetic), sequence (chain, as listed by the source): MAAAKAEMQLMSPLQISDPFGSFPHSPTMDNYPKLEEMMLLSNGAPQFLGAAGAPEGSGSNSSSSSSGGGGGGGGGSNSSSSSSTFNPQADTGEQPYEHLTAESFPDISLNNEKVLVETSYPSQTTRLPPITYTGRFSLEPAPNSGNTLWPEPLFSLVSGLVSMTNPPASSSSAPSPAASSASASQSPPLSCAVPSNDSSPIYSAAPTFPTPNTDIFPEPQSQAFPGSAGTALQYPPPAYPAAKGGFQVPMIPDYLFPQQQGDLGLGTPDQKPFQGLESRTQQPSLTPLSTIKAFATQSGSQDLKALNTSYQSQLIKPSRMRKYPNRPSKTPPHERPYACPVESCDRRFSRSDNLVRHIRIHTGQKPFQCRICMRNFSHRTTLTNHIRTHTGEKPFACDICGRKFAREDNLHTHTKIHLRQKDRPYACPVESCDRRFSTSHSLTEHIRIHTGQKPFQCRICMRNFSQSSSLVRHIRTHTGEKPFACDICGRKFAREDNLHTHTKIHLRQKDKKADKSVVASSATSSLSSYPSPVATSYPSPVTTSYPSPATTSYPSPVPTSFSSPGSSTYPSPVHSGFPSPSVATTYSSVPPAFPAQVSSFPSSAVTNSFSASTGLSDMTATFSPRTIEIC
EGR1-based eTF, 3 ZF, sequence (P18146 other isoform, or with tags, fused parts or gaps): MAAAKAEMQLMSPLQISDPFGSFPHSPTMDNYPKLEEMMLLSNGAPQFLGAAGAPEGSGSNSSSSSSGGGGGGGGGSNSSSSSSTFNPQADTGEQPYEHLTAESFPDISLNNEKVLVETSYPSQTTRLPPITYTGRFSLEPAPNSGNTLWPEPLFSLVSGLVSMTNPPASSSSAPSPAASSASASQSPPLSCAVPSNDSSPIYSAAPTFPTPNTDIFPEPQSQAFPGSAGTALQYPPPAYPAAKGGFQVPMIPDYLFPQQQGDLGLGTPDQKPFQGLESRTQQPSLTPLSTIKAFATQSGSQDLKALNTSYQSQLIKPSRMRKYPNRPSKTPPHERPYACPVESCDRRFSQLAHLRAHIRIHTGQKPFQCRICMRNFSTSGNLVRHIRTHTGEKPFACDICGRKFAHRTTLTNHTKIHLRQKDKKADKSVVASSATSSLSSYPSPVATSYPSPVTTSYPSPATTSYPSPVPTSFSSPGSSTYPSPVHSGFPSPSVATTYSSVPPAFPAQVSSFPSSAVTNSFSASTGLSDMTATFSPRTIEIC
EGR1-based eTF, 9 ZF (SCN1A) (synthetic), sequence (chain, as listed by the source): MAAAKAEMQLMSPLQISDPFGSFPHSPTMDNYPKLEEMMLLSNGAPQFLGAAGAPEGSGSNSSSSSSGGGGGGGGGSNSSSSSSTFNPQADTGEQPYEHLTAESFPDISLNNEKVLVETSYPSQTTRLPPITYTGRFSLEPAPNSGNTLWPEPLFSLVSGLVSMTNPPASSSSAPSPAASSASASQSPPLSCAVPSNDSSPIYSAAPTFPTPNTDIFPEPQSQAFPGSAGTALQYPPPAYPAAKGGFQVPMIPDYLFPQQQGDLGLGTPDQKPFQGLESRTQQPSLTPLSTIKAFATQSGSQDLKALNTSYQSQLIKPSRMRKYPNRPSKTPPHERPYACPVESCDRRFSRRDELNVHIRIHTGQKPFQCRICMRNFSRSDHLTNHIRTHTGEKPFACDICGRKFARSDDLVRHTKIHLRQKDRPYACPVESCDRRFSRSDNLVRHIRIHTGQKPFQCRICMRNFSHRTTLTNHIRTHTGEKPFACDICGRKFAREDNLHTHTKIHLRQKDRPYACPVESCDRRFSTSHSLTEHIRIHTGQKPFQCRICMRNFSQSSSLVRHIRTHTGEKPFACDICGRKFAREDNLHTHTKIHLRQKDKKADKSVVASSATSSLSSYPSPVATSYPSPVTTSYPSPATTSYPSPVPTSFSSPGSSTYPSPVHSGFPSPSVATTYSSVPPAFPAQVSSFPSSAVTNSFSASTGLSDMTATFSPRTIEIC
ZF DBD-CITED2 (synthetic), sequence (chain, as listed by the source): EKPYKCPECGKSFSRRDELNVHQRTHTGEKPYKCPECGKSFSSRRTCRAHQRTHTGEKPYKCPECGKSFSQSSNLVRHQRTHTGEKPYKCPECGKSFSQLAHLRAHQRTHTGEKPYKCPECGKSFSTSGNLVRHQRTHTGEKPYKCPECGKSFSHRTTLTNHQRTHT
EGR1-based eTF, synthetic 6-ZF DBD (synthetic), sequence (chain, as listed by the source): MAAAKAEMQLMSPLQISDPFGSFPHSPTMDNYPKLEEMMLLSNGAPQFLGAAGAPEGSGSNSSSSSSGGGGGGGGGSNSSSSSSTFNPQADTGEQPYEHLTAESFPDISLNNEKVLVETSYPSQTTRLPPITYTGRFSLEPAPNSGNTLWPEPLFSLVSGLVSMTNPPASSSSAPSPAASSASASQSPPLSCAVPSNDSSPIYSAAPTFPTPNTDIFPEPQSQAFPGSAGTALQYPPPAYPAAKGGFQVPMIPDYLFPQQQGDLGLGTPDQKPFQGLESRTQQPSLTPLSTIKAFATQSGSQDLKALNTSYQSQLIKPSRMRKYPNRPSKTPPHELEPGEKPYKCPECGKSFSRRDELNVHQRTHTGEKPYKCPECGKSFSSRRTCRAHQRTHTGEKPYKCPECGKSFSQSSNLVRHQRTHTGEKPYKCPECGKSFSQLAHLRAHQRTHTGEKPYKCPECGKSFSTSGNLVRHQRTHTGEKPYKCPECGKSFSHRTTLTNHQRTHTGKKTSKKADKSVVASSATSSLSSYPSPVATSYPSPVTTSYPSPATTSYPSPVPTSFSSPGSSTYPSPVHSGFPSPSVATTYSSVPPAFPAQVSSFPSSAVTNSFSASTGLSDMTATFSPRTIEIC
EGR3-based eTF, 6 ZF (TRE) (synthetic), sequence (chain, as listed by the source): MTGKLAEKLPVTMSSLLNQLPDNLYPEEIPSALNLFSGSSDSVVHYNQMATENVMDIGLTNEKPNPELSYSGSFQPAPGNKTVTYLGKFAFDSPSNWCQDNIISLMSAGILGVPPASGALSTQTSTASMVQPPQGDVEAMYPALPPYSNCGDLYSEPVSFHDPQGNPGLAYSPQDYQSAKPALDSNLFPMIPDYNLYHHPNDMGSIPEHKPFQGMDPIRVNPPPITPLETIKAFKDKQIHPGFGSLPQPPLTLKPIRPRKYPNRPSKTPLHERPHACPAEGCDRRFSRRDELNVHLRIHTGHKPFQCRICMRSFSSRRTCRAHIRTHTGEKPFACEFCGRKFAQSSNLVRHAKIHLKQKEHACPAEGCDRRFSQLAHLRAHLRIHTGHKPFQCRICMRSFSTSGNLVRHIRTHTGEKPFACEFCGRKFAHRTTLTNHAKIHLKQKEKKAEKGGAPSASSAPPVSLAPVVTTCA
EGR1-based eTF, duplicated 6 ZF (TRE) (synthetic), sequence (chain, as listed by the source): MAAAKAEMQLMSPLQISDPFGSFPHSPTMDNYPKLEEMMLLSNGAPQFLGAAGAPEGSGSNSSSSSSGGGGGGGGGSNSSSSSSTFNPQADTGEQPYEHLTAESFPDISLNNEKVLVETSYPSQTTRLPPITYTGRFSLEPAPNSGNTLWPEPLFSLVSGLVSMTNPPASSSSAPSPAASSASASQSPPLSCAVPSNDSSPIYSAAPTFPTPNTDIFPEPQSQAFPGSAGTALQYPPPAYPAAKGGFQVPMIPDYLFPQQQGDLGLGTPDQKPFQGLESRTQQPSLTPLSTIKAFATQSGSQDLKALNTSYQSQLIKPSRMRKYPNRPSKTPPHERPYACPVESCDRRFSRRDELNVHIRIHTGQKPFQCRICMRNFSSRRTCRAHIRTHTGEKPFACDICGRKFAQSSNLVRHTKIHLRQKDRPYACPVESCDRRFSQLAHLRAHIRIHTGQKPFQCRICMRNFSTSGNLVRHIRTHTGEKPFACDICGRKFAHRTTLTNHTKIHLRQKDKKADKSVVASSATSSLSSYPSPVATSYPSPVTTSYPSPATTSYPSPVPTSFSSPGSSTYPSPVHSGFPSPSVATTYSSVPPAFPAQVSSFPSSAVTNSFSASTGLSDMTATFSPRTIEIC

B1: TRE reporter 9-nt site (dsDNA)
DNA 1: AGTGATAGA
DNA 2: TCTATCACT
activity (EGR1-based eTF, 3 ZF): 3 fold EGFP

B2: SCN1A site 36 (dsDNA)
DNA 1: TAGGTACCATAGAGTGAG
DNA 2: CTCACTCTATGGTACCTA
activity [1]: ~7 fold SCN1A

B3: TRE reporter site (dsDNA)
DNA 1: AGTGATAGAGAACGTATG
DNA 2: CATACGTTCTCTATCACT
activity (ZF DBD-CITED2): ~15 fold EGFP
activity (ZF DBD-CITED4): ~10 fold EGFP
activity (ZF DBD-VP64): 70 fold EGFP
activity [2]: 15 fold EGFP
activity [3]: 10 fold EGFP
activity [4]: ≥ 5 fold EGFP

B4: SCN1A site 37 (dsDNA)
DNA 1: TAGGTACCATAGAGTGAGGCGAGGATG
DNA 2: CATCCTCGCCTCACTCTATGGTACCTA
activity [5]: ~20 fold SCN1A
